# Measurements from patent US20060235215A1 (published 2006).
# T1: O. sativa 14-3-3 Protein Homolog GF14-c, bait fragment aa 1-150 (Oryza sativa, UniProt Q6ZKC0 1-150)
# T1 construct: bait; also called OsGF14-c; PN12464
# T1 sequence: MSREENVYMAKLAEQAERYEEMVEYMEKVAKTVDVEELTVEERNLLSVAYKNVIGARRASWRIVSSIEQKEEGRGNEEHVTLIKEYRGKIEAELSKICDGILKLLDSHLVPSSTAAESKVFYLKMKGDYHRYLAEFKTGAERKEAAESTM
# T2: O. sativa Cellulose Synthase Catalytic Subunit, RSW1-Like, bait fragment aa 316-583 (Oryza sativa, UniProt A2Y0X2 316-583)
# T2 construct: bait; also called OsCS; PN19707
# T2 sequence: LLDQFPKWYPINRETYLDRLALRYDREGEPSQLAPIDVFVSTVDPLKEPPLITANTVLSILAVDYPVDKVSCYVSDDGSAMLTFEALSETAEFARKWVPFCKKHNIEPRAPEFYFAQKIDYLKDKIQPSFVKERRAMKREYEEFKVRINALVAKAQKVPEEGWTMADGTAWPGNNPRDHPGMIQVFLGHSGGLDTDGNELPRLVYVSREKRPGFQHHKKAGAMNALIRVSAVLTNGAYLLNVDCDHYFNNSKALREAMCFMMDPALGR
# B1: O. sativa Fructose-Bisphosphate Aldolase, Chloroplast Precursor, prey clone aa 206-269 (enzyme)
# chain: QDNGLVPIVEPEILLDGEHGIDRTFEVAQKVWAETFFYMAENNVMFEGILLKPSMVTPGAECKD
# notes: prey; AD fusion; input trait library; also called OsBAA02730; PN22832
# B2: O. sativa 3-Phosphoshikimate 1-carboxyvinyltransferase (a.k.a. EPSP Synthase), prey clone aa 463-511 (enzyme)
# chain: AIDTYDDHRMAMAFSLAACADVPVTIRDPGCTRKTFPNYFDVLSTFVRN
# notes: prey; AD fusion; input trait library; also called OsBAB61062; PN22844
# B3: OsContig4331, O. sativa Putative 33 kDa Oxygen-Evolving Protein of Photosystem II, prey clone aa 90-169 (other)
# chain: PRRLTFDEIQSKTYMEVKGTGTANQCPTVEGGVDSFAFKAGKYNMKKFCLEPTSFTVKAEGVAKNAPPEFQKTKLMTRLT
# notes: prey; AD fusion; input trait library; also called OsPN23059
# B4: Novel Protein PN29982, prey clone aa 201-300 (other)
# chain: SPVVDNADVTETKPQTELPVHVMCAEWSSQKRLKKVQLETLERVYSRTKRPTNTMISSIVQVTSLPRKTIVKWFEDRREQDGVPDHRVAFKRSLSETIAS
# notes: prey; AD fusion; input trait library; also called OsPN29982
# B5: Novel Protein PN30974, prey clone aa 38-178 (other)
# chain: GGYDHPGLIPGLPDEISLQILARMPRMGYLNAKMVSRSWKAAITGVELYRVRKELGVSEEWLYMLTKSDDGKLVWNAFDPVCGQWQRLPLMPGISHGGECKRGIPGLWLGDLLSAGIRVSDVIRGWLGQRDSLDRLPFCGC
# notes: prey; AD fusion; input trait library; also called OsPN30974
# B6: OsContig4331, O. sativa Putative 33 kDa Oxygen-Evolving Protein of Photosystem II, prey clone aa 193-333 (other)
# chain: DGIDYAAVTVQLPGGERVPFLFTIKNLVATGKPESFGGPFLVPSYRGSSFLDPKGRGGSTGYDNAVALPAGGRGDEEELAKENVKNASSSTGNITLSVTKSKPETGEVIGVFESVQPSDTDLGAKVPKDVKIQGVWYAQLE
# notes: as for B3
# B7: O. sativa Photosystem II 10 kDa Polypeptide, prey clone aa 82-126 (other)
# chain: SPEEWSPTGDTYVGGTTGLLIWAVTLAGLLGGGALLVYNTSALAG
# notes: prey; AD fusion; input trait library; also called OsAAB46718; PN22840
# B8: Novel Protein 22858, Fragment, similar to Arabidopsis GTP Cyclohydrolase II, prey clone aa 27-154 (other)
# chain: DKPTDGFSSIDEAIGALHEGKFVIAVDDESGDNEGDLVMAATLADPESIAFMIRNGSGIISVGMKEEDLTRLMIPMMSPIAEIEDISAAASTVTVDARVGISTGVSAADRAKTIFTLASPDSKPTDLR
# notes: prey; AD fusion; input trait library; also called OsPN22858
# B9: O. sativa Ribulose Bisphosphate Carboxylase/Oxygenase Activase, Large Isoform A1, prey clone aa 68-210 (enzyme)
# chain: DISDDQQDITRGKGFVDSLFQAPTGDGTHEAVLSSYEYLSQGLRTYDFDNTMGGFYIAPAFMDKLVVHISKNFMTLPNIKVPLILGIWGGKGQGKSFQCELVFAKMGINPIMMSAGELESGNAGEPAKLIRQRYREAADIIKK
# notes: prey; AD fusion; input trait library; also called OsRCAA1; PN19842
# B10: Hypothetical Protein OsContig3864, Similar to H. vulgare Photosystem I Reaction Center Subunit II, Chloroplast Precursor, prey clone aa 94-203 (other)
# chain: VITWTSPKEQVFEMPTGGAAIMREGPNLLKLARKEQCLALGTRLRSKYKINYQFYRVFPNGEVQYLHPKDGVYPEKVNAGRQGVGQNFRSIGKNVSPIEVKFTGKNVFDI
# notes: prey; AD fusion; input trait library; also called OsPN23061
# B11: Novel Protein PN30846 (putative dynamin homolog), prey clone aa 1-266 (other)
# chain: APRRPSTFLNAVALGNVGAGKSAVLNSLIGHPVLPTGENGATRAPIVVDLQRDPGLSSKSIVLQIDSKSQRVSASSLRHSLQDRLSKGASSGSSRGRVEGINLKLRTSTAPPLKLVDLPGIDQRAVDDPMINEYAGHNDAILLVVIPAMQAADVASSRALRLAKDIDADGTRTVGVISKVDQAEGDAKTIACVQALLLNKGPKNLPDIEWVALIGQSVAIASAQAAGSENSLETAWNAEAETLRSILTGAPKSKLGRIALVDTIAK
# notes: prey; AD fusion; input trait library; also called OsPN30846
# B12: Novel Protein 22874, Fragment, similar to Arabidopsis Putative Phosphatidylinositol-4-phosphate 5-kinase, prey clone aa 1-88 (other)
# chain: GTNPGFRVGEIRLSNRDIYFGTLLGNTPEGSGRYVWSDGCTYDGEWRRGMRHGQGKTMWPSGATYEGEYSGGYIYGEGTYTGSDNIVY
# notes: prey; AD fusion; input trait library; also called OsPN22874; rice PI4P5K
# B13: Novel Protein PN22866, Fragment, Similar to A. thaliana Vacuolar ATP Synthase Subunit C, prey clone aa 95-305 (other)
# chain: LLALSDDLVKSNVFIEGVSHKIRRQIEELERAGGVESGALTVDGVPVDTYLTRFVWDEGKYPTMSPLKEIAGSIQSQVSKIEDDMKVRGAEYNNVRSQLNAINRKQTGSLAVRDLSNLVKPEDMVTSEHLVTLLAVVPQYSQKDWLSSYESLDTFVVPRSSKKLYEDNEYALYTVTLFAKVVDNFKVRAREKGFQVRDFEYSSEAQESRKE
# notes: prey; AD fusion; input trait library; also called OsPN22866
# B14: O. sativa Aquaporin, prey clone aa 123-290 (other)
# chain: RKVSLVRAILYIVAQCLGAICGVGLVNAFPNAYFNRYGGGANTLAAGYSKGTGLAAEIIGTFVLVYTVFSATDPKRNARDSHVPVLAPLPIGFAVFMVHLATIPITGTGINPARSIGAAVIFNNEKAWHNHWIFWVGPFVGAAIAAFYHQYILRAGAIKALGSFRSNA
# notes: prey; AD fusion; output trait library; also called OsPIP2A; OsPIP2a
# B15: Novel Protein PN29115, Fragment, Similar to A. thaliana 6,7-Dimethyl-8-Ribityllumazine Synthase Precursor, prey clone aa 1-188 (other)
# chain: VSFPYSPRPAALAAGARASRVSPVVVAAGGGHQRLMGSLTNTQGLRFGVVVARFNEIVTNLLLQGALETFERYSVKKENITVLSVPGSFEIPVAAQKLGKSGKFDANFVHWRCAFRGDTTHYGAVANSAASGVLSAGLSAEIPCIFGVLTCDDMDQALNRAGGKAGNKGAEAALTAIEMASLFQHHLA
# notes: prey; AD fusion; output trait library; also called OsPN29115
# B16: O. sativa salT Gene Product, prey clone aa 6-145 (other)
# chain: IGPWGGNGGSAQDISVPPKKLLGVTIYSSDAIRSIAFNYIGVDGQEYAIGPWGGGESTSTEIKLGSSEQIKEISGTHGPVYDLADIVTYLKIVTSANNTYEAGVPNGKEFSIPLQDSGHVVGFFGRSGTLIDAIGIYVHP
# notes: prey; AD fusion; output trait library; also called OsAAB53810; PN29086
# B17: Novel Protein PN29076, Fragment, prey clone aa 1-187 (other)
# chain: ERDISMVNSYPPSAFDCKGWNSASIFIYESDEEIQCLLDWLRDYDPREKELKDSILQWQRHFCHQSSSPLVDPPISGPKGEQLMELPNTKAAVILEQKYGLQLDQDTSDLPKKRGKKIKLSSEDRTYRCDCLEPVWPSRYHCLTCHETYLISTEFEGHNDGKCSKIHQSPDESRENDEPKVKVTKSD
# notes: prey; AD fusion; output trait library; also called OsPN29076
# B18: Novel Protein PN29077, Fragment, Similar to A. thaliana DNA-Damage Inducible Protein DDI1-Like, prey clone aa 1-242 (other)
# chain: VEAQKKIEAAIRQKGIDENWEAALEHNPEAFARVVMLYVDMEVNGVPLKAFVDSGAQSTIISKSCAERCGLLRLLDQRYRGVAIGVGQSEILGRIHVAPIKIGHVFYPCSFTVLDAPNMEFLFGLDMLRKHQCIIDLKDNVLRVGGGEVSVPFLQEKDIPSHIRDEEKLSKLASLSQGAAGESSTAREKTPDAPPRAPTTGAPAVNPPQPQGGGDFEAKVTKLVELGFDRASVIQALKLFNG
# notes: prey; AD fusion; output trait library; four clones; also called OsPN29077
# B19: Novel Protein PN29117, prey clone aa 1-151 (printed -7-151) (other)
# chain: MLVQRRDGDTGPAVRLRVSHGASFRDVAVPAHSTFGELKGVLTQATGVEPERQRLFFRGKEKSDNEFLHTAGVKDGAKLLLLEKPAPANVEQRAEPVIMDESMMKACEAVGRVRAEVDRLSAKVCDLEKSVFAGRKIEDKDFVVLTELLMM
# notes: prey; AD fusion; output trait library; clone also holds a small portion (-7 to 0) of the 5' untranslated region; also called OsPN29117; BAG-like protein
# B20: Novel Protein PN29119, Fragment, prey clone aa 1-155 (printed -53 to 155) (other)
# chain: MEFEADGARWPEPRGDAAGAPPLERGDAPSPRFDSSRALRLLRELGSNVTEDLVVLMPNLLSFLKHDDPVVVNQSIASGTNLFAAVLEEMTLQINKCGRVDAWLEEMWAWTKQFKDAVHNLIHESVPVATKLFAVKFIETWILCFAPQSKSDRMQ
# notes: prey; AD fusion; output trait library; clone also holds a portion of the 5' untranslated region; also called OsPN29119
# B21: O. sativa Cellulose Synthase Catalytic Subunit, RSW1-Like, prey clone aa 316-582 (enzyme)
# chain: LLDQFPKWYPINRETYLDRLALRYDREGEPSQLAPIDVFVSTVDPLKEPPLITANTVLSILAVDYPVDKVSCYVSDDGSAMLTFEALSETAEFARKWVPFCKKHNIEPRAPEFYFAQKIDYLKDKIQPSFVKERRAMKREYEEFKVRINALVAKAQKVPEEGWTMADGTAWPGNNPRDHPGMIQVFLGHSGGLDTDGNELPRLVYVSREKRPGFQHHKKAGAMNALIRVSAVLTNGAYLLNVDCDHYFNNSKALREAMCFMMDPALG
# notes: prey; AD fusion; input trait library; also called OsCS; PN19707
# B22: Novel Protein PN29084, Fragment, Similar to Soybean (Glycine max) Calcium-Dependent Protein Kinase, prey clone aa 1-253 (other)
# chain: ESGIFRQILRGKLDLESDPWPSISDSAKDLVRNMLIRDPTKRFTAHEVLCHPWIVDDAVAPDKPIDSAVLSRLKHFSAMNKLKKMALRVIAESLSEEEIGGLKELFKMIDTDNSGTITYDELKNGLKRVGSDLMEPEIQALMDAADIDNSGTIDYGEFLAATLHMNKLEREENLVSAFTFFDKDGSGFITIDELSQACEQFGLSDVHLEDMIKDVDQNNDGQIDYSEFAAMMRKGNAGGANAGGVTSTGGTGR
# notes: prey; AD fusion; output trait library; three clones; also called OsPN29084
# B23: O. sativa DNAJ Homologue, prey clone aa 1-92 (other)
# chain: CKVSYIDAILGTTVKVPTVDGMVDLKIPSGTQPGTTLVMSKKGVPLLGKSNARGDQLVRVQVEIPKRLSSDERKLIEELANLNKAQTANSRR
# notes: prey; AD fusion; output trait library; also called OsPN29113
# B24: Novel Protein PN29116, Fragment, prey clone aa 1-169 (other)
# chain: GRKPVAAQHYNKGDKDGTSTGSRCTSVAWVPEREGIFVVSHSDGNLYVYDKCKDGNTECTFPAIKDPAQLMISHAKSSKSNPIARWHVCQGSINAISFSPDGAYLATVGRDGYLRVFDFSKEQLIFGGKSYYGALLCCTWSSDGKYLLTGGEDDLVQVWSMDDRKIVAW
# notes: prey; AD fusion; output trait library; also called OsPN29116
# Biological target: T1, O. sativa 14-3-3 Protein Homolog …
# Assay: yeast two-hybrid
row,binding result,Binder
1,binds,B1
2,binds,B2
3,binds,B3
4,binds,B4
5,binds,B5
6,binds,B6
7,binds,B7
8,binds,B8
9,binds,B9
10,binds,B10
11,binds,B11
12,binds,B12
13,binds,B13

# Biological target: T2, O. sativa Cellulose Synthase Catalytic …
# Assay: yeast two-hybrid
# Method: Yeast carrying the target gene construct was combined with yeast carrying the activation domain library. The two yeast strains mated to form diploid yeast and were plated on media that selected for expression of one or more Ga14p-responsive reporter genes. Thus, both hybrid proteins (i.e., the target “bait” protein and the activation domain “prey” protein) were expressed in a yeast reporter strain where an interaction between the test proteins results in transcription of the reporter genes […]. Colonies that arose after incubation were selected for further characterization. The activation domain plasmid was isolated from each colony obtained in the two-hybrid search. The sequence of the insert in this construct was obtained by sequence analysis (e.g., Sanger's dideoxy nucleotide chain termination method; see Ausubel et al., 1988, including updates up to 2002). Thus, the identity of positives obtained from these searches was determined by sequence analysis against proprietary and public (e.g., GENBANK®) nucleic acid and protein databases.
# A second bait, namely O. sativa Cellulose Synthase Catalytic Subunit, RSW1-Like (OSCS; PN19707; GENBANK® Accession No. AF030052), was also used.
row,binding result,Binder
1,binds,B14
2,binds,B15
3,binds,B16
4,binds,B17
5,binds,B18
6,binds,B19
7,binds,B20
8,binds,B21
9,binds,B22
10,binds,B23
11,binds,B24
